According to patent US20250313626A1 (HARBOUR BIOMED SHANGHAI, published 2025):
Numbering of substitutions follows the chain as printed. Read-outs that look alike come from different tables or passages of the source.

T1: human CD200R1 isoform a on CHOK1 cells (CHOK1/hCD200R1a) (human, UniProt Q8TD46 25-348)
T1 construct: also called CHOK1/CD200R1a
T1 sequence: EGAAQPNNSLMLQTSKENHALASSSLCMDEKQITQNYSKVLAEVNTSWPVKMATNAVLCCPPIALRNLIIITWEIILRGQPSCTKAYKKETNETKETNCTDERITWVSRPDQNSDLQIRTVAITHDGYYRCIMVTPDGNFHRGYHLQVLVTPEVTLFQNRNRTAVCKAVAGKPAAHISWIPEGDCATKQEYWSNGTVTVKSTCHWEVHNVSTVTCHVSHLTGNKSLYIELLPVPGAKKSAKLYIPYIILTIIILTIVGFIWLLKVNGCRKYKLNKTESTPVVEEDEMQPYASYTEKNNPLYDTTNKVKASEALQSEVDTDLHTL

T2: CD200R1a on PathHunter Jurkat CD200R1a signaling cells (Eurofins DiscoverX, 93-1136C19) (human, UniProt Q8TD46 25-348)
T2 sequence: T1 sequence

T3: Cynomolgus macaques CD200R1 isoform a on CHOK1 cells (CHOK1/cynoCD200R1a) (Cynomolgus macaques)
T3 chain: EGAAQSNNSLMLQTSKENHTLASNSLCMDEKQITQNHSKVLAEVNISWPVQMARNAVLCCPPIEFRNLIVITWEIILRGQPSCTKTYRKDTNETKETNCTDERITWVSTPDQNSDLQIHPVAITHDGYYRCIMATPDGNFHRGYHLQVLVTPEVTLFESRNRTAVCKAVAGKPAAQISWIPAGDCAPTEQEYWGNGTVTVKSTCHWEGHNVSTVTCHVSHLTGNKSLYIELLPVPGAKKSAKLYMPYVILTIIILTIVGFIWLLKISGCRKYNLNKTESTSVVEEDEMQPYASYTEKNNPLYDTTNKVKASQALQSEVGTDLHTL

B1: PR007630 (antibody, human IgG1, kappa, V domains shown)
VH: QVQLVESGGGVVQPGRSLRLSCAASGFTFSSYGFHWVRQAPGKGLEWLGIIWSDASNKYYADSVKGRFTISRDNSKNTLYLQMNSLRAEDTAVYYCARDRIVGEGFDYWGQGTLVTVSS
VL: DIVMTQSPLSLPVTPGEPASISCRSSQSLLHRSGYNYLDWYLQKPGQSPQLLIYLGSYRASGVPDRFSGSGSGTDFTLKISRVEAEDVGVYYCMQGLQTMYTFGQGTKLEIKR
notes: PTM variant of PR006839 (human IgG1)
B2: PR007972 (antibody, human IgG1, kappa, V domains shown)
VH: B1 VH with S31Y
VL: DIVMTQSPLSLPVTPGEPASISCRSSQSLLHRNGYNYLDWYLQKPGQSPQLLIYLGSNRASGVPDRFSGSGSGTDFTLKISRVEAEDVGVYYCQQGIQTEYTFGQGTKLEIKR
notes: as for B1
B3: PR007631 (antibody, human IgG1, kappa, V domains shown)
VH: B1 VH with I50L, S56R, N57H, Y59D
VL: B1 VL with A60W
notes: as for B1

Columns and labels:
[1] = target: T1, human CD200R1 isoform a on CHOK1 cells …; experiment: flow cytometry, CHOK1/hCD200R1a cells (FITC-Mean); table beside the curves, head without unit, x axis Log [Ab] (nM)
[2] = target: T1, human CD200R1 isoform a on CHOK1 cells …; experiment: flow cytometry blocking assay: antibody titrated against biotin-labelled human CD200 binding to CHOK1/hCD200R1a cells; head prints EC50 without unit, x axis Log [Ab] (nM), y axis Inhibition %
Procedure: (§1) In brief, CHOK1/hCD200R1a cells were digested and resuspended in 2% BSA in PBS. […] The cells were placed at 4° C. and incubated for 1 hour in the dark. […] 100 μL/well of pre-cooled PBS containing 2% BSA was added to rinse the cells twice, centrifugation was performed at 500 g, 4° C. for 5 minutes, and the supernatant was discarded. Fluorescent secondary antibody (PE Streptavidin, BD, Cat #: 554061, 1:200) was added at 100 μL/well, and incubation was performed at 4° C. for 30 minutes in the dark. The cells were washed twice with 200 μL/well of pre-cooled PBS, and were centrifuged at 500 g, 4° C. for 5 minutes, and the supernatant was discarded. Finally, 200 μL/well of pre-cooled PBS was used to resuspend the cells, and the fluorescence signal values were read using ACEA Novocyte 3000 flow cytometer. IC50 values were calculated.

[3] = target: T1, human CD200R1 isoform a on CHOK1 cells …; experiment: flow cytometry, CHOK1/hCD200R1a cells (FITC-Mean); table beside the curves
Procedure: This example is intended to investigate the in vitro binding activity of human anti-CD200R1 monoclonal antibodies to human/Cynomolgus macaques CD200R1a expressed on the surface of cells. The anti-CD200R1 antibodies were produced as described in Example 3.4 and the binding experiments at the cell level were performed using CHOK1/hCD200R1a and CHOK1-cynoCD200R1a.
Briefly, CHOK1/hCD200R1a cells and CHOK1-cynoCD200R1a cells were digested, and collected, and then were resuspended in PBS containing 2% BSA, respectively. The cell density was adjusted to 1×10⁶ cells/mL. The cells were seeded in a 96-well V-bottom plate (Corning, #3894) at 100 μL/well, followed by the addition of test antibodies and reference antibodies in a series diluted concentration, each at 100 μL/well. The cells were incubated away from light at 4° C. for 1 h. Thereafter, the cells in each well were rinsed twice with 100 μL of pre-cooled PBS containing 2% BSA, and centrifuged at 500 g at 4° C. for 5 min, and then the supernatant was discarded. 100 μL of fluorescent secondary antibody (Alexa Fluor 488-conjugated AffiniPure Goat Anti-Human IgG, Fcγ Fragment Specific, Jackson, #109-545-098, diluted in a 1:1000 ratio) was added in each well, and the plate was incubated away from light at 4° C. for 1 h. The cells in each well were rinsed twice with 100 μL of pre-cooled PBS containing 2% BSA, and centrifuged at 500 g at 4° C. for 5 min, and then the supernatant was discarded. Finally, the cells in each well were resuspended in 200 μL of pre-cooled PBS containing 2% BSA, and the fluorescence signal values were read using a BD CantoII flow cytometer.

[4] = target: T2, CD200R1a on PathHunter Jurkat CD200R1a …; experiment: cell-based or functional assay
[5] = target: T3, Cynomolgus macaques CD200R1 isoform a …; experiment: flow cytometry, CHOK1/cynoCD200R1a cells (APC-A Mean); table beside the curves
[6] = target: T1, human CD200R1 isoform a on CHOK1 cells …; experiment: flow cytometry blocking assay: biotin-labelled human CD200 binding to CHOK1/hCD200R1a cells; y axis Inhibition %
Procedure: as §1

[7] = target: T2, CD200R1a on PathHunter Jurkat CD200R1a …; experiment: cell-based or functional assay; remark: listed apart in the source

Row | Binder | EC50 [1] | EC50 [2] | MFI(Max) [3] | IC50 of the inhibition of CD200-induced PathHunter Jurkat CD200R1a luminescence (CHOK1/hCD200 cells as CD200 source) [4] | EC50 [5] | MFI (MAX) [5] | Blocking(Max) [6] | IC50 of the inhibition of CD200-induced PathHunter Jurkat CD200R1a luminescence (CHOK1/hCD200 cells as CD200 source) [7]
1 | B1 | 0.313 nM | 0.359 nM | 18900 | 0.46 nM | 4.69 nM | 58600 | 99.9% | –
2 | B2 | 0.19 nM | 0.158 nM | 19000 | – | 4.48 nM | 51200 | 99.9% | 0.368 nM
3 | B3 | 0.311 nM | 0.323 nM | 19400 | 0.266 nM | 3.63 nM | 51800 | 99.9% | –
